Test results published in publication PMC2698432.

What was measured:
SarZ C13S = SarZ C13S (Staphylococcus aureus, UniProt Q5HDG9 1-148, C13S); experiment: EMSA
SarZ = target: T1, SarZ (Staphylococcus aureus, UniProt Q5HDG9 1-148); experiment: EMSA
T1 sequence: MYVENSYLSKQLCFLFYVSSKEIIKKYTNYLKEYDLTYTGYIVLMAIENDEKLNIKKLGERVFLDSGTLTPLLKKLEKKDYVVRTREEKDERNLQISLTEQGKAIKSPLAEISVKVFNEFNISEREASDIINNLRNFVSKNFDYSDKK

B1: ohr promoter fragment (ohr1/ohr2) (dsDNA)
DNA 1: TTTTCGAATGGGTAAAGCATAAATGTATTTTAAATTAGGAGGTTATAAGT
DNA 2: ACTTATAACCTCCTAATTTAAAATACATTTATGCTTTACCCATTCGAAAA
Does B1 bind (SarZ C13S)?
Result: binds

Does B1 bind (SarZ)?
Result: binds
